Target: mthK, O27564-2

Calcium-gated potassium channel MthK (Methanobacterium thermoautotrophicum) (from UniProt O27564-1) L3D
effect of a mutation on the interaction: disrupting interaction

Source: IntAct's records for PubMed 18959476
